Test results as given in IntAct's records for PubMed 35512704.

B1: Speckle-type POZ protein (Homo sapiens), O43791 (parent)
chain: MSRVPSPPPPAEMSSGPVAESWCYTQIKVVKFSYMWTINNFSFCREEMGEVIKSSTFSSGANDKLKWCLRVNPKGLDEESKDYLSLYLLLVSCPKSEVRAKFKFSILNAKGEETKAMESQRAYRFVQGKDWGFKKFIRRDFLLDEANGLLPDDKLTLFCEVSVVQDSVNISGQNTMNMVKVPECRLADELGGLWENSRFTDCCLCVAGQEFQAHKAILAARSPVFSAMFEHEMEESKKNRVEINDVEPEVFKEMMCFIYTGKAPNLDKMADDLLAAADKYALERLKVMCEDALCSNLSVENAAEILILADLHSADQLKTQAVDFINYHASDVLETSGWKSMVVSHPHLVAEAYRSLASAQCPFLGPPRKRLKQS
partner: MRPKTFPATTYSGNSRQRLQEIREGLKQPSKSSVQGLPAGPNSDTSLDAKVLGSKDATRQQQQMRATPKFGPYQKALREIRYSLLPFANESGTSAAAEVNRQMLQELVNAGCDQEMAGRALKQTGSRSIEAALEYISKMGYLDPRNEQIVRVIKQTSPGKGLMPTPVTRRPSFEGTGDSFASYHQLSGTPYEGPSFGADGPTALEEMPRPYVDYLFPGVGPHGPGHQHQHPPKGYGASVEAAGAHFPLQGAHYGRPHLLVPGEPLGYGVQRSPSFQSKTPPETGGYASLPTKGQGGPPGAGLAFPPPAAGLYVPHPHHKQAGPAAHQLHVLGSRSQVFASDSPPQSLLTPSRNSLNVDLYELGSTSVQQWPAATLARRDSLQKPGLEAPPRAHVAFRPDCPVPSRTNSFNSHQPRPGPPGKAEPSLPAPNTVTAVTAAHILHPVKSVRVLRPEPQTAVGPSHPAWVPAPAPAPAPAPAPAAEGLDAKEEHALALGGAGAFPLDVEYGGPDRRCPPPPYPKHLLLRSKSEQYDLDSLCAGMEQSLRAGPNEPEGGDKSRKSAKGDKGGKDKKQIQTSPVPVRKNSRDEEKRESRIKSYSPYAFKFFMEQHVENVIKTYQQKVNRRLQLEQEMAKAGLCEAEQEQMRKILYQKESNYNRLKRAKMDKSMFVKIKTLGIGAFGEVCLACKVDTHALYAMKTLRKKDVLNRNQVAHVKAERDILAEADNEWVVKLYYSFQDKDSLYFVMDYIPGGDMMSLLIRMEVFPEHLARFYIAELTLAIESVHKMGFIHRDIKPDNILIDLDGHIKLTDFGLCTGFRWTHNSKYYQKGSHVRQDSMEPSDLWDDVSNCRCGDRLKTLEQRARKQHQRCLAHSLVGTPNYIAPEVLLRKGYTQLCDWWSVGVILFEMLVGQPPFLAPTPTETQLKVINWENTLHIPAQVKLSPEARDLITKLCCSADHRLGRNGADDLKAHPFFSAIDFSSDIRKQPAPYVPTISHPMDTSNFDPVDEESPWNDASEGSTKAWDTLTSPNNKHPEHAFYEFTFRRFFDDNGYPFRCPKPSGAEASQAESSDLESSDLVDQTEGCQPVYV
B2: Speckle-type POZ protein (Homo sapiens), O43791 (parent)
chain: B1 chain
partner: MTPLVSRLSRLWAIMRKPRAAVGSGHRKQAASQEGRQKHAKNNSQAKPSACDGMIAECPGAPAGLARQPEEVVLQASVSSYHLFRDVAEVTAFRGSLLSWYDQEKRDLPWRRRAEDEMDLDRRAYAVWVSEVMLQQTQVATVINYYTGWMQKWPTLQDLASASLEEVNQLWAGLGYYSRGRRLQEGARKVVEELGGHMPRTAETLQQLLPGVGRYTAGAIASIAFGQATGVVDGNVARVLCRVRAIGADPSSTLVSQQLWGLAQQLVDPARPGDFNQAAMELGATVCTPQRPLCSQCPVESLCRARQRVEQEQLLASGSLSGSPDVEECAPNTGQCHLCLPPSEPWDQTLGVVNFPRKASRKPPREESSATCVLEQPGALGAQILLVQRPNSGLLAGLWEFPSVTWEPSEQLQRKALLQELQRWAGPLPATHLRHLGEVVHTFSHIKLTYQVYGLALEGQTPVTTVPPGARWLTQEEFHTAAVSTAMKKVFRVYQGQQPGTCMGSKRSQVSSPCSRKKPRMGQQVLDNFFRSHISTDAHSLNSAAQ
B3: Speckle-type POZ protein (Homo sapiens), O43791 (parent)
chain: B1 chain
partner: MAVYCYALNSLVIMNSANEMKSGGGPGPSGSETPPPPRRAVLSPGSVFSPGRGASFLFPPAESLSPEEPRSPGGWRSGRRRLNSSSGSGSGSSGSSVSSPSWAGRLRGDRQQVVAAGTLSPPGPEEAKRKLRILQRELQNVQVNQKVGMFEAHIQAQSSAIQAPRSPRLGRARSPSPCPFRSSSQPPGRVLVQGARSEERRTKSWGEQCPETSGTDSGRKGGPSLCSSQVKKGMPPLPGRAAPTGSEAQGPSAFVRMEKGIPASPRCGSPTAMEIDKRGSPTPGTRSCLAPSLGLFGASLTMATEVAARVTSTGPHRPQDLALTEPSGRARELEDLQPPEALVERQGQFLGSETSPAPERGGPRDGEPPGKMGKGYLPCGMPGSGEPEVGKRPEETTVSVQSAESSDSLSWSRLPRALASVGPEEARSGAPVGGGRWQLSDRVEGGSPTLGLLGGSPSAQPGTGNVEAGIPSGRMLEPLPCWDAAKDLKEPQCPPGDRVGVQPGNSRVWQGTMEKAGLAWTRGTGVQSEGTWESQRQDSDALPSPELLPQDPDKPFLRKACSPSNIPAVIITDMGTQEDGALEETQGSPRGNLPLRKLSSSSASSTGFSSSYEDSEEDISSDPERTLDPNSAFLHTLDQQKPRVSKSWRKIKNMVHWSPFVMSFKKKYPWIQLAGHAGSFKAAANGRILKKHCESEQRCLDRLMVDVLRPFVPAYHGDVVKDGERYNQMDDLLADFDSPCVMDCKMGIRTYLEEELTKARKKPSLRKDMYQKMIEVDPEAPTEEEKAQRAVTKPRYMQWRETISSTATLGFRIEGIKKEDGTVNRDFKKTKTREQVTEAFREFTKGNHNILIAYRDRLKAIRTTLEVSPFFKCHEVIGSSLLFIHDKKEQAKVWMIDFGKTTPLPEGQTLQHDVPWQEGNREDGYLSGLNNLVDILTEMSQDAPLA
B4: Speckle-type POZ protein (Homo sapiens), O43791 (parent)
chain: B1 chain
partner: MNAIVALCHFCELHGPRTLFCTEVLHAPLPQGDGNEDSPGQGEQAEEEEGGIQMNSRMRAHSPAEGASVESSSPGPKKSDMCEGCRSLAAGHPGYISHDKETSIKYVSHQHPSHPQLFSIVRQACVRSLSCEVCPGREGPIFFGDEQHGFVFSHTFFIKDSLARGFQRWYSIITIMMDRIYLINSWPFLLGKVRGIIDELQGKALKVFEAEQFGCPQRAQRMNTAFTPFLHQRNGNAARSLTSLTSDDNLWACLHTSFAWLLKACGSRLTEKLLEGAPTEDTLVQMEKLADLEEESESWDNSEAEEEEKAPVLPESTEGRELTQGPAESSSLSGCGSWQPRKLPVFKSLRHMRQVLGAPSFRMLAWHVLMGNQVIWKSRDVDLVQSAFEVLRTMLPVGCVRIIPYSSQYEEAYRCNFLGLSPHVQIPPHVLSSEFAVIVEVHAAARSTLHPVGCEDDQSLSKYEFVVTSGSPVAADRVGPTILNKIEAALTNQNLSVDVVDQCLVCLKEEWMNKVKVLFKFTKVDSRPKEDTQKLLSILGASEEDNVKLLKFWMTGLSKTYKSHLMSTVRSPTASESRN
B5: Speckle-type POZ protein (Homo sapiens), O43791 (parent)
chain: B1 chain
partner: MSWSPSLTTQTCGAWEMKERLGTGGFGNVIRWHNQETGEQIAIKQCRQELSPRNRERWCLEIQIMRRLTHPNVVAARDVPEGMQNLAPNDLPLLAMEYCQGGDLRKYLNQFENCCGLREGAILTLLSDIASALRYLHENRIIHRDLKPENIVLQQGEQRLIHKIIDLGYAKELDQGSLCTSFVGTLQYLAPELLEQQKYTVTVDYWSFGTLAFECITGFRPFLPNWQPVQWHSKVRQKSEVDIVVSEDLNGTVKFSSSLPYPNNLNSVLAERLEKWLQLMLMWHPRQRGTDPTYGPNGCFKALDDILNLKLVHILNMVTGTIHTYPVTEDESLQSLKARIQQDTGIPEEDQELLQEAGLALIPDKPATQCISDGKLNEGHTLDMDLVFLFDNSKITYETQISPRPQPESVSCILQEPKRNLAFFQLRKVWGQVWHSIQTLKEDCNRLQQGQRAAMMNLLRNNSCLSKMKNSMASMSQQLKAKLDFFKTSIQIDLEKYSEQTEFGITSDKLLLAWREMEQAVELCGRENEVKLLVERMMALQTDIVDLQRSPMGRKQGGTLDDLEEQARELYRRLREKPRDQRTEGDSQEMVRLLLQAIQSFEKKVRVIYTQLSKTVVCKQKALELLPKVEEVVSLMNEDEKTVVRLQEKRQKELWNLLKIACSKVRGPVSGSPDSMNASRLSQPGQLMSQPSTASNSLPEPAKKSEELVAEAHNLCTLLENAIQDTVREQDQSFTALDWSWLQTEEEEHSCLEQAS
B6: Speckle-type POZ protein (Homo sapiens), O43791 (parent)
chain: B1 chain
partner: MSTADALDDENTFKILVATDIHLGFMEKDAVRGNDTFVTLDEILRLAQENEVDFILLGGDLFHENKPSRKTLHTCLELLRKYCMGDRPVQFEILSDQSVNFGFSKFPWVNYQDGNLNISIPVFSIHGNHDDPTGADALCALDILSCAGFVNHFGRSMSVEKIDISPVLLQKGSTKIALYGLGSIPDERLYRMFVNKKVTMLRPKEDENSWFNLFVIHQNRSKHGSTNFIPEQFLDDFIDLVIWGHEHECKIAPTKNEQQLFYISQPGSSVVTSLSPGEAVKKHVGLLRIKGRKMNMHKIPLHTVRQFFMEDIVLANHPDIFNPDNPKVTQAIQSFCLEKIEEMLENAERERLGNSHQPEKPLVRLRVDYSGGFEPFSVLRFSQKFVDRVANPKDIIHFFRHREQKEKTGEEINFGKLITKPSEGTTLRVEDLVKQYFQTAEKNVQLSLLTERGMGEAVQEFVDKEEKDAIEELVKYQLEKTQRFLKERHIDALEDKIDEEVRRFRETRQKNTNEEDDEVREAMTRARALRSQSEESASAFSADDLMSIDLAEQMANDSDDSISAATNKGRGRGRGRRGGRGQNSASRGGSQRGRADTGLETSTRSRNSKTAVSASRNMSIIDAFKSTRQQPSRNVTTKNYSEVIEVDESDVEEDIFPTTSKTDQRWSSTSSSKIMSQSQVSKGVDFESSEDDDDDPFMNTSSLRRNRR

Variants of: B1
Details: with lats2_human LATS2, Q9NRM7

effect of a mutation on the interaction | Variant
with no effect | Y87C

Variants of: B1
Details: with lats2_human LATS2, Q9NRM7
Remark: another data set of the same source

effect of a mutation on the interaction | Variant
with no effect | F102C

Variants of: B1
Details: with lats2_human LATS2, Q9NRM7
Remark: another data set of the same source

effect of a mutation on the interaction | Variant
with no effect | F133V

Variants of: B1
Details: with lats2_human LATS2, Q9NRM7
Remark: another data set of the same source

effect of a mutation on the interaction | Variant
with no effect | F133L

Variants of: B2
Details: with mutyh_human MUTYH

effect of a mutation on the interaction | Variant
with no effect | F133L

Variants of: B2
Details: with mutyh_human MUTYH
Remark: another data set of the same source

effect of a mutation on the interaction | Variant
with no effect | F133V

Variants of: B2
Details: with mutyh_human MUTYH
Remark: another data set of the same source

effect of a mutation on the interaction | Variant
with no effect | Y87C

Variants of: B2
Details: with mutyh_human MUTYH
Remark: another data set of the same source

effect of a mutation on the interaction | Variant
with no effect | F102C

Variants of: B3
Details: with ip3kb_human ITPKB

effect of a mutation on the interaction | Variant
with no effect | Y87C

Variants of: B3
Details: with ip3kb_human ITPKB
Remark: another data set of the same source

effect of a mutation on the interaction | Variant
with no effect | F133V

Variants of: B3
Details: with ip3kb_human ITPKB
Remark: another data set of the same source

effect of a mutation on the interaction | Variant
with no effect | F133L

Variants of: B3
Details: with ip3kb_human ITPKB
Remark: another data set of the same source

effect of a mutation on the interaction | Variant
with no effect | F102C

Variants of: B4
Details: with flcn_human FLCN

effect of a mutation on the interaction | Variant
with no effect | Y87C

Variants of: B4
Details: with flcn_human FLCN
Remark: another data set of the same source

effect of a mutation on the interaction | Variant
with no effect | F133L

Variants of: B4
Details: with flcn_human FLCN
Remark: another data set of the same source

effect of a mutation on the interaction | Variant
with no effect | F133V

Variants of: B4
Details: with flcn_human FLCN
Remark: another data set of the same source

effect of a mutation on the interaction | Variant
with no effect | F102C

Variants of: B5
Details: with ikkb_human IKBKB

effect of a mutation on the interaction | Variant
with no effect | F102C

Variants of: B5
Details: with ikkb_human IKBKB
Remark: another data set of the same source

effect of a mutation on the interaction | Variant
with no effect | Y87C

Variants of: B5
Details: with ikkb_human IKBKB
Remark: another data set of the same source

effect of a mutation on the interaction | Variant
with no effect | F133V

Variants of: B5
Details: with ikkb_human IKBKB
Remark: another data set of the same source

effect of a mutation on the interaction | Variant
with no effect | F133L

Variants of: B6
Details: with mre11_human MRE11, P49959

effect of a mutation on the interaction | Variant
with no effect | F133V

Variants of: B6
Details: with mre11_human MRE11, P49959
Remark: another data set of the same source

effect of a mutation on the interaction | Variant
with no effect | F133L

Variants of: B6
Details: with mre11_human MRE11, P49959
Remark: another data set of the same source

effect of a mutation on the interaction | Variant
with no effect | Y87C
